# Source: doi:10.1101/2023.04.11.536350
# Where “and” joins values, the source holds several entries; their conditions need not be identical. Identical values can stand only once.
# What was measured:
# [1] = molecular target: European robin cryptochrome 4a, wild type, with N-terminal 10xHis-tag (European robin (Erithacus rubecula)); assay: mass photometry
# [2] = molecular target: European robin cryptochrome 4a, wild type, with N-terminal 10xHis-tag (European robin (Erithacus rubecula)); assay: native MS
# [3] = molecular target: European robin cryptochrome 4a, wild type, with N-terminal 10xHis-tag (European robin (Erithacus rubecula)); assay: native MS; remark: listed apart in the source
# [4] = molecular target: ErCry4a C412A (European robin (Erithacus rubecula)); assay: native MS
# [5] = molecular target: ErCry4a C412A+C317A (European robin (Erithacus rubecula)); assay: native MS
# [6] = molecular target: ErCry4a C317A (European robin (Erithacus rubecula)); assay: native MS
substance,measurement,setting,value
"European robin cryptochrome 4a, wild type, with N-terminal 10xHis-tag (natural protein)",percent of counts in the dimer peak,[1],11%
same,stoichiometry N,[1],2
same,stoichiometry N,[2],3
same,stoichiometry N,[3],2
ErCry4a C412A (natural protein),stoichiometry N,[4],2 and 3
ErCry4a C412A+C317A (natural protein),stoichiometry N,[5],2 and 3
ErCry4a C317A (natural protein),stoichiometry N,[6],2 and 3
